± gives the uncertainty stated by the source.
Assay: protein stability index of a GFP-peptide fusion (yeast GPS) (PSI 1-4); higher = more stable; sorted into four equal gates, so the index is relative within each strain
Method in brief: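 Plasmids isolated from each sorting gate were PCR-amplified and Illumina-sequenced, and barcodes assigned the reads to strains. The gates, four of equal size, were set by GFP/Cherry fluorescence ratio on mid-log cultures in leucine-free medium. These cultures were yeast carrying a pooled library of tiled 17-residue yeast protein peptides fused downstream of GFP on a plasmid that also expresses Cherry. The protein stability index is the sum of every gate's read frequency times its gate number.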

Sequence | protein stability index (doa10∆) | protein stability index (pdr5∆) | protein stability index (san1∆) | protein stability index (ubr1∆)
SDVLRFLQRVRVWEYRQ [RPL15A] | 1.34 ± 0.083 | 1.88 ± 0.066 | 1.71 ± 0.083 | 2.01 ± 0.054
QVIVDIFSVHGNTVVDG [YCG1] | 2.08 ± 0.11 | 2.12 ± 0.068 | 1.4 ± 0.2 | 2.34 ± 0.035
FLNEARDKAGRLAEVNL [RPO21] | 2.05 ± 0.074 | 1.55 ± 0.054 | 2.06 ± 0.13 | 1.47 ± 0.055
ELTKSLSIAFENGDYAA [RPN12] | 3.17 ± 0.16 | 3 ± 0.11 | 3.24 ± 0.073 | 3.24 ± 0.12
GSAINHHRIFDSSAHFK [YMR129W/POM152] | 2.57 ± 0.049 | 2.46 ± 0.062 | 2.64 ± 0.075 | 2.71 ± 0.039
ENIQEGTSLTIQHIAAA [CDC53] | 2.52 ± 0.091 | 3.11 ± 0.086 | 2.42 ± 0.099 | 2.91 ± 0.077
GYDIFLNVVLDDAMEIN [SMX2] | 3.13 ± 0.064 | 3.07 ± 0.075 | 3.17 ± 0.054 | 2.99 ± 0.06
TIVNDSNYDWLFQLLNA [RPN9] | 2.34 ± 0.074 | 2.58 ± 0.077 | 2.34 ± 0.078 | 2.61 ± 0.048
QAGVTKASVTIVFDNTD [SMC2] | 2.23 ± 0.071 | 2.76 ± 0.058 | 2.73 ± 0.053 | 3.09 ± 0.047
PKVTPQMMQQAQQKLKQ [SRP54] | 1.42 ± 0.25 | 1.18 ± 0.18 | – | 1.48 ± 0.24
FSSPAALMKTLIKFVDL [NUT1] | 1.98 ± 0.083 | 1.68 ± 0.057 | 1.95 ± 0.12 | 1.78 ± 0.12
KLRSELGYKDTSVIQDL [BRR2] | 2.74 ± 0.13 | 2.22 ± 0.083 | 2.69 ± 0.072 | 2.96 ± 0.083
RAGIIIAKLSVIPIRRG [RPS2] | 2.21 ± 0.077 | 2.13 ± 0.047 | 1.31 ± 0.13 | 2.25 ± 0.072
GAISAVAATNTPIIFIG [SRP54] | 2.85 ± 0.085 | 3.42 ± 0.17 | 2.69 ± 0.073 | 2.66 ± 0.086
KDIIDPKLTSIFERMIE [RPN2] | 2.68 ± 0.14 | 2.99 ± 0.11 | 2.93 ± 0.078 | 2.66 ± 0.1
LTEQIRELREVIELPLK [RPT4] | 2.69 ± 0.14 | 3.73 ± 0.27 | 3.12 ± 0.17 | 3.06 ± 0.087
AIYNNPTRIRTKSSKEF [RRI2] | 1.41 ± 0.068 | 1.67 ± 0.06 | 1.68 ± 0.1 | 1.55 ± 0.061
TFGINLIYVNPFMLQWG [FAS1] | 2.22 ± 0.067 | 2.35 ± 0.08 | 2.46 ± 0.074 | 2.4 ± 0.051
FQVSNVISLGPNLATFI [YJL039C/NUP192] | 1.76 ± 0.14 | 1.99 ± 0.11 | – | 2.17 ± 0.054

Sequence | protein stability index (doa10∆) | protein stability index (pdr5∆) | protein stability index (san1∆) | protein stability index (ubr1∆)
AWGALITTFVKRSTVPL [YML103C/NUP188] | 2.46 ± 0.07 | 2.88 ± 0.072 | 2.49 ± 0.076 | 2.33 ± 0.12
AFGVSVAFLDNDLGKFI [RPN7] | 3.17 ± 0.086 | 3.16 ± 0.1 | 3.07 ± 0.081 | 3.28 ± 0.057
DEDKNFPRSRSRSRSSI [ESC2] | 3.13 ± 0.15 | 3.25 ± 0.14 | 3.12 ± 0.14 | 3.27 ± 0.07
ACSSSGRETILSNFNAD [SIR3] | 2.39 ± 0.037 | 2.16 ± 0.04 | 2.44 ± 0.045 | 2.75 ± 0.042
AGERKIPHDLNFLQESY [TAF14] | 2.83 ± 0.086 | 3 ± 0.079 | 2.71 ± 0.064 | 2.62 ± 0.071
SFSFGAPESMKSTASTA [YOR098C/NUP1] | 3.07 ± 0.069 | 3.13 ± 0.091 | 3.31 ± 0.059 | 3.12 ± 0.053
TTIFVKSTTPYVSALKR [POP7] | 1.82 ± 0.07 | 2.27 ± 0.077 | 2.27 ± 0.076 | 1.97 ± 0.056
DKKSCSVDDVLSALDHI [DPB4] | 3.29 ± 0.086 | 3.23 ± 0.089 | 3.31 ± 0.054 | 3.22 ± 0.044
FHILLKLILEWVAPQES [ECM29] | – | 2.08 ± 0.27 | 1.53 ± 0.17 | 1.77 ± 0.14
DICQIDTNAPVAATITS [SRB8] | 2.29 ± 0.063 | 2.45 ± 0.083 | 2.36 ± 0.096 | 2.26 ± 0.049
EPYHFISNYNTKYTDDM [SRB8] | 2.96 ± 0.11 | 2.98 ± 0.07 | 3.01 ± 0.057 | 3.19 ± 0.1
NLETLVTTKDDLSGADI [RPT2] | 3.15 ± 0.067 | 3.34 ± 0.085 | 3.27 ± 0.037 | 3.34 ± 0.057
LSKLCVPVANQFINLAG [QCR7] | 1.98 ± 0.059 | 2.13 ± 0.071 | 1.81 ± 0.058 | 1.94 ± 0.033
QEKESQIQLAESELSLL [SMC4] | 2.81 ± 0.046 | 2.95 ± 0.051 | 1.89 ± 0.076 | 2.71 ± 0.039
QEQVQDYVNKTNSHLPA [FAS1] | 2.52 ± 0.069 | 2.44 ± 0.1 | 2.62 ± 0.11 | 2.32 ± 0.064
MAKSKNHTAHNQTRKAH [RPL29] | 1.7 ± 0.058 | 2.41 ± 0.08 | 1.96 ± 0.095 | 2.32 ± 0.067
LKKLEKFMELERKTLER [SWI3] | 2.95 ± 0.061 | 2.84 ± 0.069 | 3.18 ± 0.046 | 2.66 ± 0.058
DYGEEIKSGVAKLESLL [MTW1] | 3.26 ± 0.24 | 3.11 ± 0.12 | 3.37 ± 0.13 | 3.4 ± 0.087
SYNLEYIESKFCPGEIV [YMR129W/POM152] | 3.15 ± 0.13 | 3.21 ± 0.19 | 3.12 ± 0.14 | 3.21 ± 0.096

From the supplement of paper PMC9732359
